Experimental data as given in US20160161469A1, “SYNTHETIC MICROFLUIDIC SYSTEMS FOR WOUND HEALING” (CFD Research Corporation, priority 2013, published 2016).

System: whole blood
Assay: Varying concentrations assay of hemostatic agent in the microfluidic hemostasis device (coagulation time at the vascular injury site)
Type: cell-based
Description: Biomolecules such as tissue factor (TF) can be used as a surrogate for hemostatic agents. TF is the primary cellular initiator of blood coagulation via the extrinsic pathway. After vessel injury, the TF:VIIa complex activates the coagulation protease cascade, which leads to fibrin deposition and activation of platelets (see FIGS. 7-8). TF expression by nonvascular cells plays an essential role in hemostasis by activating blood coagulation. In contrast, TF expression by vascular cells induces intravascular thrombosis. […] TF can be allowed to adhere to the surface of the channels by incubating at 37° C. and 5% CO2. Saline wash can be initiated to wash off any residual TF.
In order to mimic these conditions observed, TNF-α at a concentration of 10 μg/ml can be injected near the wound site of the tissue channel (e.g., outer channel) from the top inlet of the device. It should be noted that endothelial cells cultured in the vascular channel (e.g., central channel) can grow near the wound site opening, and also into the tissue area. Injection of TNF-α can activate the endothelial cells adjacent to the injection site to start expressing TF. At about 8 hour after activation, hemostasis restoration experiments can be initiated.
Whole blood can be kept anticoagulated using corn trypsin inhibitor (CTI). […] The time taken to completely repair (block) the opening can be recorded (FIG. 8). […]

B1: Tissue factor: primary cellular initiator of blood coagulation via the extrinsic pathway, used as a surrogate for hemostatic agents (protein, UniProt P13726 33-295, looked up)
Tissue factor: SGTTNTVAAYNLTWKSTNFKTILEWEPKPVNQVYTVQISTKSGDWKSKCFYTTDTECDLTDEIVKDVKQTYLARVFSYPAGNVESTGSAGEPLYENSPEFTPYLETNLGQPTIQSFEQVGTKVNVTVEDERTLVRRNNTFLSLRDVFGKDLIYTLYYWKSSSSGKKTAKTNTNEFLIDVDKGENYCFSVQAVIPSRTVNRKSTDSPVECMGQEKGEFREIFYIIGAVVFVVIILVIILAISLHKCRKAGVGQSWKENSPLNVS
In the case of B1, the “time to coagulate (coagulation time of the whole blood at the vascular injury site)” value (Tissue factor at higher concentration of 10 μg/ml (extreme dose scenario)) is reported as “less than 5 minutes” and the “time to coagulate (coagulation time of the whole blood at the vascular injury site)” value (Tissue factor coated at 10 ng/ml in the tissue channel) is reported as ≥ 5 min.
